The subject of this series is TfiI-s (N-terminally shortened TfiI) lacks first 12 amino acids; translation presumed to start at TTG codon (Thermus filiformis). The experiment in a line: cleavage_in_vitro. The following applies: cell lysate; lambda DNA substrate.

As for lambda DNA, the activity (units/g wet cells) worked out at 100000.

The values are drawn from patent publication US6133008.
